Tests used:
SARS-CoV-2 S1 = SARS-CoV-2 S1 (SARS-CoV-2, UniProt P0DTC2 16-685)
SARS-CoV S1 = SARS-CoV S1 (SARS-CoV, UniProt P59594 14-667); experiment: competition ELISA as in Example 3.2: blocking of SARS-CoV S1 binding to hACE2

Binder | Kd (SARS-CoV-2 S1) | IC50 (SARS-CoV S1)
Ab2001.10 (antibody, V domains shown) VH: QVQLVQSGAEVKKPGASVKVSCKASGDTFSSFDINWVRQATGQGLEWMGWMHAGSGNAGYAQKFQGRVTMTRDTSISTAYMELSSLRSEDTAVYYCANYVPHGAFQIWGQGTMVTVSS VL: not shown | 4.21 nM | 
Ab2001.08 (antibody, V domains shown) VH: QVQLVQSGAEVKKPGSSVKVSCKASGGTFSSYAISWVRQAPGQGLEWMGRIIPIFGTANYAQKFQGRVTITADESTSTAYMELSSLRSEDTAVYYCASLASYSSGWEDVFDIWGQGTMVTVSS VL: DIQMTQSPSSLSASVGDRVTITCRASQGISSWLAWYQQKPGKAPKLLIYDASNLETGVPSRFSGSGSGTDFTFTISSLQPEDIATYYCQQYDNLPLTFGGGTKVEIK | 2.93 nM | 
Ab2001.16 (bispecific antibody, V domains shown) VH 1: EVQLVESGGGLVQPGGSLRLSCAASGFSFSNSDMHWVRQATGKGLEWVSAIGDSGDTYYSDSVKGRFTISRENAKSSLYLQMNSLRAEDTAVYYCARAANWGWDWYFDLWGRGTLVTVSS VH 2: EVQLVETGGGLIQPGGSLRLSCAASGFTVSSNYMSWVRQAPGKGLEWVSVIYSGGSTYYADSVKGRFTISRDNSKNTLYLQMNSLRAEDTAVYYCARDAGPYGMDVWGQGTTVTVSS VL: not shown | 2.39 nM | 
Ab2001.11 (antibody, V domains shown) VH: EVQLVESGGGLVQPGGSLRLSCAASGFSFSNSDMHWVRQATGKGLEWVSAIGDSGDTYYSDSVKGRFTISRENAKSSLYLQMNSLRAEDTAVYYCARAANWGWDWYFDLWGRGTLVTVSS VL: not shown |  | 304 nM
